# Measurements: patent publication US20200199196A1 (WASHINGTON UNIVERSITY, published 2020)
# T1: monomeric OPG (monomeric fragment of OPG) (UniProt O08712 22-197, limits assumed)
# T1 construct: also called OPG-6xHis; unlabeled OPG
# T1 sequence (looked up): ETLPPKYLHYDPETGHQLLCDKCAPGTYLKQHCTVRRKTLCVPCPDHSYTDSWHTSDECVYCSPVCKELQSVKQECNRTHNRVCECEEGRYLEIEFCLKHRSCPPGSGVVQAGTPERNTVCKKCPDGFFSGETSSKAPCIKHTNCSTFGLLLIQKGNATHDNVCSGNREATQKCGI
# T2: monomeric RANK (monomeric fragment of RANK) (UniProt O35305 31-214, limits assumed)
# T2 construct: The monomeric RANK of the SPR and the RANK-6xHis of the yeast display are treated here as one molecule; also called RANK-6xHis; RANK-6His
# T2 sequence (looked up): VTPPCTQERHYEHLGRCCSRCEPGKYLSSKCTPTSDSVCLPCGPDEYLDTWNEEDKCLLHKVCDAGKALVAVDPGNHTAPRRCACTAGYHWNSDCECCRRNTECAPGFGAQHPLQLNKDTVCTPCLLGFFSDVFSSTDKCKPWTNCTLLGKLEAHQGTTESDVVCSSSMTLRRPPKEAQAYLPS
# T3: monomeric OPG (monomeric fragment of OPG) (UniProt O08712 22-197)
# T3 chain: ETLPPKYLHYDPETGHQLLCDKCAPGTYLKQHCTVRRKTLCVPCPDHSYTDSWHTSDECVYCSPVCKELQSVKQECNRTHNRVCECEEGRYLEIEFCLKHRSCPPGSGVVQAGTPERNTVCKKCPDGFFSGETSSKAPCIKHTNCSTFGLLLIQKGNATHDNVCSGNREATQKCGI
# T4: monomeric RANK (monomeric fragment of RANK) (UniProt O35305 31-214)
# T4 chain: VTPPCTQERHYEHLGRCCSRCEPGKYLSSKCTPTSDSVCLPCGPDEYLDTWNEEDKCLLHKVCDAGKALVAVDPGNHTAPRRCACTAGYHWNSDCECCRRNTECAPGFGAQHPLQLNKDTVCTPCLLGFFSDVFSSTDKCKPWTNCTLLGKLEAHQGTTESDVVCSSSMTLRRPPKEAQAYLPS
# T5: RANK on mouse bone marrow macrophages (BMMs) (mouse, UniProt O35305 31-625)
# T5 sequence (looked up): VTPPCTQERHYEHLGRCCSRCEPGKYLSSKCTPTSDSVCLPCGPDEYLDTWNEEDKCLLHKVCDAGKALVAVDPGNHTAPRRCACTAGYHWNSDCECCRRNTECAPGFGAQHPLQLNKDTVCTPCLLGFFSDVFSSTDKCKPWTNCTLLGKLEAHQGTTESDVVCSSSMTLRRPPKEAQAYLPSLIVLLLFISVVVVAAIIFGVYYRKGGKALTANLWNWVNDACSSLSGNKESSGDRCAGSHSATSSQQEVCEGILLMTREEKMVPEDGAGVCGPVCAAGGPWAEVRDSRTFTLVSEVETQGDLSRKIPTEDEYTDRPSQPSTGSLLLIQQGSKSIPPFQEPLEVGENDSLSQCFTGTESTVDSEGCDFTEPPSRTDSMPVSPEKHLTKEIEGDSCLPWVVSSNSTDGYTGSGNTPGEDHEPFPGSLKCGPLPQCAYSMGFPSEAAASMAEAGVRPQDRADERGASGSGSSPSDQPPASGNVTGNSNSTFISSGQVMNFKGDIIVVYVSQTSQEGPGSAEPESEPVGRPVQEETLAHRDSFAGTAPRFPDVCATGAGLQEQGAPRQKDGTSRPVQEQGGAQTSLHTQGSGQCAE
# Assays:
# [1] = molecular target: T1, monomeric OPG (monomeric fragment of …); assay: yeast surface display, flow cytometry titration (FIG. 13A)
# Description: (§1) The binding of RANK or OPG (as detected with APC-conjugated antibodies) was normalized to the amount of htRANKL expressed at the yeast cell surface (as detected with a FITC-conjugated antibody) and was expressed as the ratio of the MFIs of the APC and FITC signals. Curves represent three independent experiments.
# (§2) EBY100 yeast cells were transformed with the pYD1-RANKL construct using the lithium acetate/single-stranded DNA method as described (36) and colonies were selected in tryptophan-deficient, glucose-based medium at 30° C. Display of RANKL protein was induced by inoculating into galactose-based selective medium and incubating at 30° C. with shaking for 24 to 48 hours. Surface expression of RANKL was detected with a fluorescein isothiocyanate (FITC)-conjugated anti-V5 antibody (Invitrogen). After incubation with RANK-Fc or OPG-Fc for 10 min at room temperature and washing with ice-cold PBS, receptor binding was detected with an allophycocyanin (APC)-conjugated anti-human Fc antibody (Molecular Probes). All experiments were performed with LSR II or Canto II flow cytometers (BD Biosciences) and data were analyzed with the FlowJo™ software package (Tree Star, Inc.). Alternatively, RANK-6×His or OPG-6×His proteins were detected with APC-labeled anti-6×His antibody (MBL International).
# [2] = molecular target: T2, monomeric RANK (monomeric fragment of …); assay: yeast surface display, flow cytometry titration (FIG. 13)
# Description: as §1, §2
# [3] = molecular target: T3, monomeric OPG (monomeric fragment of …); assay: SPR
# [4] = molecular target: T3, monomeric OPG (monomeric fragment of …); assay: yeast surface display titration
# [5] = molecular target: T1, monomeric OPG (monomeric fragment of …); assay: SPR (FIG. 11)
# [6] = molecular target: T4, monomeric RANK (monomeric fragment of …); assay: SPR
# [7] = molecular target: T4, monomeric RANK (monomeric fragment of …); assay: SPR
# [8] = molecular target: T3, monomeric OPG (monomeric fragment of …); assay: SPR
# [9] = molecular target: T2, monomeric RANK (monomeric fragment of …); assay: SPR, htRANKL coupled to the chip, monomeric RANK as analyte (FIG. 3C)
# Protocol: (§3) Variants of htRANKL were coupled to a sensor chip and monomeric fragments of RANK or OPG served as analytes. Curve fits of triplicate runs are shown as black lines and values represent means±SD. kₐ (on-rate), kd (off-rate), KD (equilibrium dissociation constant).
# (§4) All SPR experiments were performed on a Biacore T-100 (GE Healthcare) with CM5 sensor chips and HBS-EP buffer (10 mM HEPES (pH 7.4), 150 mM NaCl, 3 mM EDTA, and 0.05% v/v Surfactant P20). […] Monomeric RANK (20 μM) was flowed over until saturation. Total RUs bound at equilibrium were calculated with BIAEvaluation software.
# [10] = molecular target: T4, monomeric RANK (monomeric fragment of …); assay: yeast surface display titration
# [11] = molecular target: T1, monomeric OPG (monomeric fragment of …); assay: yeast surface display, flow cytometry titration (FIG. 3B)
# Description: Values represent the averages of three independent experiments. […] Variants of htRANKL were coupled to a sensor chip and monomeric fragments of RANK or OPG served as analytes. Curve fits of triplicate runs are shown as black lines and values represent means±SD. kₐ (on-rate), kd (off-rate), KD (equilibrium dissociation constant).
# as §2
# [12] = molecular target: T2, monomeric RANK (monomeric fragment of …); assay: SPR, htRANKL variant coupled to the chip, monomeric RANK as analyte (FIG. 3C)
# Protocol: as §3, §4
# [13] = molecular target: T5, RANK on mouse bone marrow macrophages …; assay: cell-based or functional assay
binder,measurement,setting,value
"CDins/Q236H htRANKL (CDins combined with the Q236H mutation) (ligand, also called variant RANKL that combined CDins with the Q236H mutation) QPFAHLTINAASIPSGSHKVTLSSWYHDRGWAKISNMTLSNGKLRVNQDGFYYLYANISFRGGSHHETSGSVPTDYLHLMVYVVKTSEKIPSSHNLMKGGSTKNWSGNSEFHFYSINVGGFFKLRAGEEISIQVSNPSLLDPDQDATYFGAFKVQDID",binding result,[1],no binding
same,binding result,[2],no binding
"WT-SM htRANKL (homotrimeric mouse RANKL with the solubility mutations C220S/I246E) (ligand, The format differs by assay; also called WT-SM RANKL; WT htRANKL) QPFAHLTINAASIPSGSHKVTLSSWYHDRGWAKISNMTLSNGKLRVNQDGFYYLYANISFRHHETSGSVPTDYLQLMVYVVKTSEKIPSSHNLMKGGSTKNWSGNSEFHFYSINVGGFFKLRAGEEISIQVSNPSLLDPDQDATYFGAFKVQDID",Kd,[3],30.5 nM
same,Kd,[4],~32.8 nM
same,fold decrease in binding against WT htRANKL without the solubility mutations,[5],~10 fold
same,Kd,[6],1400 nM
same,Kd,[7],1400 nM
same,Kd,[8],30.5 nM
same,t1/2 (dissociation time),[9],0.05 min
wild-type homotrimeric RANKL without the solubility mutations (WT htRANKL as compared with WT-SM htRANKL in FIG. 5 and FIG. 11) (ligand) QPFAHLTINAASIPSGSHKVTLSSWYHDRGWAKISNMTLSNGKLRVNQDGFYYLYANICFRHHETSGSVPTDYLQLMVYVVKTSIKIPSSHNLMKGGSTKNWSGNSEFHFYSINVGGFFKLRAGEEISIQVSNPSLLDPDQDATYFGAFKVQDID,Kd,[7],1230 nM
same,Kd,[8],4.75 nM
"KQF htRANKL (K194E, Q236H, F269Y) (ligand) QPFAHLTINAASIPSGSHKVTLSSWYHDRGWAEISNMTLSNGKLRVNQDGFYYLYANISFRHHETSGSVPTDYLHLMVYVVKTSEKIPSSHNLMKGGSTKNWSGNSEYHFYSINVGGFFKLRAGEEISIQVSNPSLLDPDQDATYFGAFKVQDID",Kd,[10],~23.6 nM
"KQFH htRANKL (K194E, Q236H, F269Y, H270Y) (ligand, also called RANK^high variant) QPFAHLTINAASIPSGSHKVTLSSWYHDRGWAEISNMTLSNGKLRVNQDGFYYLYANISFRHHETSGSVPTDYLHLMVYVVKTSEKIPSSHNLMKGGSTKNWSGNSEYYFYSINVGGFFKLRAGEEISIQVSNPSLLDPDQDATYFGAFKVQDID",binding result,[11],no binding
same,Kd,[10],~1.4 nM
same,Kd,[6],3.37 nM
same,fold greater affinity than wild-type htRANKL,[12],~500 fold
same,fold longer dissociation time than WT htRANKL,[12],200 fold
same,t1/2 (dissociation time),[12],11.2 min
"double-block, RANK^high scRANKL (ligand) QPFAHLTINAASIPSGSHKVTLSSWYHDRGWAKISNMTLSNGKLRVNQDGFYYLYANISFRGGSHHETSGSVPTDYLHLMVYVVKTSEKIPSSHNLMKGGSTKNWSGNSEFHFYSINVGGFFKLRAGEEISIQVSNPSLLDPDQDATYFGAFKVQDIDGGSGGGSGGGSGQPFAHLTINAASIPSGSHKVTLSSWYHDRGWAKISNMTLSNGKLRVNQDGFYYLYANISFRGGSHHETSGSVPTDYLHLMVYVVKTSEKIPSSHNLMKGGSTKNWSGNSEFHFYSINVGGFFKLRAGEEISIQVSNPSLLDPDQDATYFGAFKVQDIDGGSGGGSGGGSGQPFAHLTINAASIPSGSHKVTLSSWYHDRGWAEISNMTLSNGKLRVNQDGFYYLYANISFRHHETSGSVPTDYLHLMVYVVKTSEKIPSSHNLMKGGSTKNWSGNSEYYFYSINVGGFFKLRAGEEISIQVSNPSLLDPDQDATYFGAFKVQDIDSSGRENLYFQ","IC50 of inhibition of signaling / osteoclast formation stimulated by wild-type htRANKL (TRAP activity, FIG. 4D)",[13],~10 nM
"single-block, RANK^high scRANKL (ligand) QPFAHLTINAASIPSGSHKVTLSSWYHDRGWAKISNMTLSNGKLRVNQDGFYYLYANISFRGGSHHETSGSVPTDYLHLMVYVVKTSEKIPSSHNLMKGGSTKNWSGNSEFHFYSINVGGFFKLRAGEEISIQVSNPSLLDPDQDATYFGAFKVQDIDGGSGGGSGGGSGQPFAHLTINAASIPSGSHKVTLSSWYHDRGWAEISNMTLSNGKLRVNQDGFYYLYANISFRHHETSGSVPTDYLHLMVYVVKTSEKIPSSHNLMKGGSTKNWSGNSEYYFYSINVGGFFKLRAGEEISIQVSNPSLLDPDQDATYFGAFKVQDIDGGSGGGSGGGSGQPFAHLTINAASIPSGSHKVTLSSWYHDRGWAEISNMTLSNGKLRVNQDGFYYLYANISFRHHETSGSVPTDYLHLMVYVVKTSEKIPSSHNLMKGGSTKNWSGNSEYYFYSINVGGFFKLRAGEEISIQVSNPSLLDPDQDATYFGAFKVQDIDSSGRENLYFQ","IC50 of inhibition of signaling / osteoclast formation stimulated by wild-type htRANKL (TRAP activity, FIG. 4D)",[13],0.2 nM
K/Q (protein) MRRASRDYGKYLRSSEEMGSGPGVPHEGPLHPAPSAPAPAPPPAASRSMFLALLGLGLGQVVCSIALFLYFRAQMDPNRISEDSTHCFYRILRLHENADLQDSTLESEDTLPDSCRRMKQAFQGAVQKELQHIVGPQRFSGAPAMMEGSWLDVAQRGKPEAQPFAHLTINAASIPSGSHKVTLSSWYHDRGWAEISNMTLSNGKLRVNQDGFYYLYANICFRHHETSGSVPTDYLHLMVYVVKTSIKIPSSHNLMKGGSTKNWSGNSEFHFYSINVGGFFKLRAGEEISIQVSNPSLLDPDQDATYFGAFKVQDID,Kd,[10],~69.7 nM
H270Y (protein) MRRASRDYGKYLRSSEEMGSGPGVPHEGPLHPAPSAPAPAPPPAASRSMFLALLGLGLGQVVCSIALFLYFRAQMDPNRISEDSTHCFYRILRLHENADLQDSTLESEDTLPDSCRRMKQAFQGAVQKELQHIVGPQRFSGAPAMMEGSWLDVAQRGKPEAQPFAHLTINAASIPSGSHKVTLSSWYHDRGWAKISNMTLSNGKLRVNQDGFYYLYANICFRHHETSGSVPTDYLQLMVYVVKTSIKIPSSHNLMKGGSTKNWSGNSEFYFYSINVGGFFKLRAGEEISIQVSNPSLLDPDQDATYFGAFKVQDID,Kd,[4],~276 nM
same,Kd,[10],~465 nM
Q236H (protein) MRRASRDYGKYLRSSEEMGSGPGVPHEGPLHPAPSAPAPAPPPAASRSMFLALLGLGLGQVVCSIALFLYFRAQMDPNRISEDSTHCFYRILRLHENADLQDSTLESEDTLPDSCRRMKQAFQGAVQKELQHIVGPQRFSGAPAMMEGSWLDVAQRGKPEAQPFAHLTINAASIPSGSHKVTLSSWYHDRGWAKISNMTLSNGKLRVNQDGFYYLYANICFRHHETSGSVPTDYLHLMVYVVKTSIKIPSSHNLMKGGSTKNWSGNSEFHFYSINVGGFFKLRAGEEISIQVSNPSLLDPDQDATYFGAFKVQDID,Kd,[10],~346 nM
K194E (protein) MRRASRDYGKYLRSSEEMGSGPGVPHEGPLHPAPSAPAPAPPPAASRSMFLALLGLGLGQVVCSIALFLYFRAQMDPNRISEDSTHCFYRILRLHENADLQDSTLESEDTLPDSCRRMKQAFQGAVQKELQHIVGPQRFSGAPAMMEGSWLDVAQRGKPEAQPFAHLTINAASIPSGSHKVTLSSWYHDRGWAEISNMTLSNGKLRVNQDGFYYLYANICFRHHETSGSVPTDYLQLMVYVVKTSIKIPSSHNLMKGGSTKNWSGNSEFHFYSINVGGFFKLRAGEEISIQVSNPSLLDPDQDATYFGAFKVQDID,Kd,[4],~71.7 nM
F269Y (protein) MRRASRDYGKYLRSSEEMGSGPGVPHEGPLHPAPSAPAPAPPPAASRSMFLALLGLGLGQVVCSIALFLYFRAQMDPNRISEDSTHCFYRILRLHENADLQDSTLESEDTLPDSCRRMKQAFQGAVQKELQHIVGPQRFSGAPAMMEGSWLDVAQRGKPEAQPFAHLTINAASIPSGSHKVTLSSWYHDRGWAKISNMTLSNGKLRVNQDGFYYLYANICFRHHETSGSVPTDYLQLMVYVVKTSIKIPSSHNLMKGGSTKNWSGNSEYHFYSINVGGFFKLRAGEEISIQVSNPSLLDPDQDATYFGAFKVQDID,Kd,[4],~33.3 nM
